± gives the standard deviation of the averaged measurements.
Test: total protein half-life in vivo (active degradation + dilution); higher = more stable protein
[1] = E. coli NCM3722 delta-clpP delta-lon delta-hslV, growth: N-lim chemostat, doubling time 6 h
[2] = E. coli NCM3722 delta-clpP, growth: N-lim chemostat, doubling time 6 h
[3] = E. coli NCM3722 delta-hslV, growth: N-lim chemostat, doubling time 6 h
[4] = E. coli NCM3722 delta-lon, growth: N-lim chemostat, doubling time 6 h
[5] = E. coli NCM3722 delta-smpB, growth: N-lim chemostat, doubling time 6 h
[6] = wild type E. coli NCM3722, growth: C-lim chemostat, doubling time 3 h
[7] = wild type E. coli NCM3722, growth: C-lim chemostat, doubling time 6 h
[8] = wild type E. coli NCM3722, growth: C-lim chemostat, doubling time 12 h
[9] = wild type E. coli NCM3722, growth: N-lim chemostat, doubling time 6 h
[10] = wild type E. coli NCM3722, growth: N-lim chemostat, doubling time 12 h
[11] = wild type E. coli NCM3722, growth: P-lim chemostat, doubling time 6 h
[12] = wild type E. coli NCM3722, growth: P-lim chemostat, doubling time 12 h

Sequence	total protein half-life in vivo [1]	total protein half-life in vivo [2]	total protein half-life in vivo [3]	total protein half-life in vivo [4]	total protein half-life in vivo [5]	total protein half-life in vivo [6]	total protein half-life in vivo [7]	total protein half-life in vivo [8]	total protein half-life in vivo [9]	total protein half-life in vivo [10]	total protein half-life in vivo [11]	total protein half-life in vivo [12]
MSFSCPLCHQPLSREKNSYICPQRHQFDMAKEGYVNLLPVQHKRSRDPGDSAEMMQARRAFLDAGHYQPLRDAIVAQLRERLDDKATAVLDIGCGEGYYTHAFADALPEITTFGLDVSKVAIKAAAKRYPQVTFCVASSHRLPFSDTSMDAIIRIYAPCKAEELARVVKPGGWVITATPGPRHLMELKGLIYNEVHLHAPHAEQLEGFTLQQSAELCYPMRLRGDEAVALLQMTPFAWRAKPEVWQTLAAKEVFDCQTDFNIHLWQRSY	6.07 ± 0.81 h	4.95 ± 0.29 h	4.97 h	4.9 ± 0.089 h	4.28 ± 0.53 h	2.57 h	5.6 h	10.8 ± 0.77 h	5.34 ± 0.44 h	9.24 ± 0.73 h	5.78 ± 0.22 h	13.5 ± 2.7 h
MKLSRRSFMKANAVAAAAAAAGLSVPGVARAVVGQQEAIKWDKAPCRFCGTGCGVLVGTQQGRVVACQGDPDAPVNRGLNCIKGYFLPKIMYGKDRLTQPLLRMKNGKYDKEGEFTPITWDQAFDVMEEKFKTALKEKGPESIGMFGSGQWTIWEGYAASKLFKAGFRSNNIDPNARHCMASAVVGFMRTFGMDEPMGCYDDIEQADAFVLWGANMAEMHPILWSRITNRRLSNQNVTVAVLSTYQHRSFELADNGIIFTPQSDLVILNYIANYIIQNNAINQDFFSKHVNLRKGATDIGYGLRPTHPLEKAAKNPGSDASEPMSFEDYKAFVAEYTLEKTAEMTGVPKDQLEQLAQLYADPNKKVISYWTMGFNQHTRGVWANNLVYNLHLLTGKISQPGCGPFSLTGQPSACGTAREVGTFAHRLPADMVVTNEKHRDICEKKWNIPSGTIPAKIGLHAVAQDRALKDGKLNVYWTMCTNNMQAGPNINEERMPGWRDPRNFIIVSDPYPTVSALAADLILPTAMWVEKEGAYGNAERRTQFWRQQVQAPGEAKSDLWQLVQFSRRFKTEEVWPEDLLAKKPELRGKTLYEVLYATPEVSKFPVSELAEDQLNDESRELGFYLQKGLFEEYAWFGRGHGHDLAPFDDYHKARGLRWPVVNGKETQWRYSEGNDPYVKAGEGYKFYGKPDGKAVIFALPFEPAAEAPDEEYDLWLSTGRVLEHWHTGSMTRRVPELHRAFPEAVLFIHPLDAKARDLRRGDKVKVVSRRGEVISIVETRGRNRPPQGLVYMPFFDAAQLVNKLTLDATDPLSKETDFKKCAVKLEKV	4.71 h	–	5.32 ± 0.18 h	3.56 ± 0.76 h	3.46 ± 0.36 h	2.03 ± 0.31 h	4.52 ± 0.7 h	8.61 ± 1.2 h	4.268 ± 0.041 h	5.85 ± 2.3 h	3.574 ± 0.034 h	> 16 h
MVDSKKRPGKDLDRIDRNILNELQKDGRISNVELSKRVGLSPTPCLERVRRLERQGFIQGYTALLNPHYLDASLLVFVEITLNRGAPDVFEQFNTAVQKLEEIQECHLVSGDFDYLLKTRVPDMSAYRKLLGETLLRLPGVNDTRTYVVMEEVKQSNRLVIKTR [P0ACJ0]	6.5 ± 0.13 h	6.63 ± 0.76 h	6.65 ± 0.079 h	7.54 ± 0.57 h	6.08 ± 0.29 h	3.27 ± 0.28 h	6.23 ± 0.33 h	10.8 ± 0.19 h	5.82 ± 0.65 h	12 ± 0.67 h	5.73 ± 0.45 h	14 ± 0.69 h
MKYQQLENLESGWKWKYLVKKHREGELITRYIEASAAQEAVDVLLSLENEPVLVNGWIDKHMNPELVNRMKQTIRARRKRHFNAEHQHTRKKSIDLEFIVWQRLAGLAQRRGKTLSETIVQLIEDAENKEKYANKMSSLKQDLQALLGKE [P0A8N0]	–	5.544 ± 0.014 h	4.69 ± 0.85 h	5.46 ± 0.53 h	4.27 ± 1.1 h	3.13 ± 0.038 h	5.74 ± 0.2 h	10.9 ± 5.6 h	3.21 ± 1.6 h	10.7 ± 5.8 h	–	9.592 ± 0.066 h
MSDKKKRSMAGLPWIAAMAFFMQALDATILNTALPAIAHSLNRSPLAMQSAIISYTLTVAMLIPVSGWLADRFGTRRIFTLAVSLFTLGSLACALSNSLPQLVVFRVIQGIGGAMMMPVARLALLRAYPRNELLPVLNFVAMPGLVGPILGPVLGGVLVTWATWHWIFLINIPIGIAGLLYARKHMPNFTTARRRFDITGFLLFGLSLVLFSSGIELFGEKIVASWIALTVIVTSIGLLLLYILHARRTPNPLISLDLFKTRTFSIGIVGNIATRLGTGCVPFLMPLMLQVGFGYQAFIAGCMMAPTALGSIIAKSMVTQVLRRLGYRHTLVGITVIIGLMIAQFSLQSPAMAIWMLILPLFILGMAMSTQFTAMNTITLADLTDDNASSGNSVLAVTQQLSISLGVAVSAAVLRVYEGMEGTTTVEQFHYTFITMGIITVASAAMFMLLKTTDGNNLIKRQRKSKPNRVPSESE	6.64 h	–	–	–	–	–	–	–	–	–	5.92 h	–
MRLAPLYRNALLLTGLLLSGIAAVQAADWPRQITDSRGTHTLESQPQRIVSTSVTLTGSLLAIDAPVIASGATTPNNRVADDQGFLRQWSKVAKERKLQRLYIGEPSAEAVAAQMPDLILISATGGDSALALYDQLSTIAPTLIINYDDKSWQSLLTQLGEITGHEKQAAERIAQFDKQLAAAKEQIKLPPQPVTAIVYTAAAHSANLWTPESAQGQMLEQLGFTLAKLPAGLNASQSQGKRHDIIQLGGENLAAGLNGESLFLFAGDQKDADAIYANPLLAHLPAVQNKQVYALGTETFRLDYYSAMQVLDRLKALF [P0AEL6]	3.63 ± 0.44 h	4.68 ± 0.25 h	5.13 h	–	5.5 ± 0.95 h	> 4 h	5.29 ± 0.068 h	11.5 ± 3.5 h	5.62 ± 0.55 h	10.4 ± 3 h	6.51 ± 0.24 h	–
MPQISRYSDEQVEQLLAELLNVLEKHKAPTDLSLMVLGNMVTNLINTSIAPAQRQAIANSFARALQSSINEDKAH [P0AD24]	6.24 ± 0.65 h	4.76 h	5.69 ± 0.2 h	4.63 ± 1.3 h	4.16 ± 1.4 h	2.99 ± 0.041 h	5.16 ± 0.18 h	10.1 ± 0.73 h	3.54 ± 0.42 h	9.19 h	5.83 h	10.4 h
MTKMSRYALITALAMFLAGCVGQREPAPVEEVKPAPEQPAEPQQPVPTVPSVPTIPQQPGPIEHEDQTAPPAPHIRHYDWNGAMQPMVSKMLGADGVTAGSVLLVDSVNNRTNGSLNAAEATETLRNALANNGKFTLVSAQQLSMAKQQLGLSPQDSLGTRSKAIGIARNVGAHYVLYSSASGNVNAPTLQMQLMLVQTGEIIWSGKGAVSQQ [P0AB38]	5.22 ± 0.26 h	5.7 ± 0.39 h	6.59 ± 0.23 h	6.43 ± 0.46 h	6.495 ± 0.062 h	3.38 ± 0.095 h	6.19 ± 0.46 h	10.9 ± 0.91 h	6.102 ± 0.019 h	12.3 ± 0.41 h	5.94 ± 0.24 h	11.7 ± 1.2 h
